The target of test [1] is T1, 人Claudin18.1 (human Claudin18.1) (human, UniProt P56856 1-261).
T1 construct: whole, on cells; also called CLD18.1; 密蛋白18.1
Description: flow cytometry (FACS) on Claudin18.1-positive HEK293 cells, FITC goat anti-human IgG. In general terms: In flow cytometry, cells or beads pass a laser one at a time.

Test [2] addresses T2, 人Claudin18.2蛋白 (human Claudin18.2) (human, UniProt P56856-2 1-261).
T2 construct: whole, on cells; also called CLD18.2; 密蛋白18.2
The test can be described thus: flow cytometry (FACS) on Claudin18.2-positive HEK293 cells, 0.1-10 μg/mL, FITC goat anti-human IgG.

B1: HDR002C04 (antibody, human IgG1, lambda, V domains shown)
VH: QVQLVQSGAEVKKPGASVKVSCKASGYTFTSYYMHWVRQAPGQGLEWMGIINPSGGSTSYAQKFQGRVTMTRDTSTSTVYMELSSLRSEDTAVYYCAKGSVDTAMVPGVDYWGQGTLVTVSS
VL: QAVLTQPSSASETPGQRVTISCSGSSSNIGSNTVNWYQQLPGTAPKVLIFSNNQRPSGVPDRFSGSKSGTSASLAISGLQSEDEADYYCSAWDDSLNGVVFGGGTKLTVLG
notes: also called 抗体HDR002C04; 抗Claudin18.2抗体
B1: the binding result in test [1] is “no binding (tested: 0.1-10 μg/mL tested)”; in test [2] it was “binds”.

B2: HDR002C06 (antibody, human IgG1, kappa, V domains shown)
VH: QVQLQESGPGLVKPSQTLSLTCTVSGGSISSGGYYWSWIRQHPGKGLEWIGYIYYSGSTYYNPSLKSRVTISVDTSKNQFSLKLSSVTPDDTAKYYCARIVASVGGVDVWGQGTTVTVSS
VL: DIQLTQSPSSVSASVGDRVTITCRASQGISSWLAWYQQKPGKAPKLLIYAASSLQSGVPSRFSGSGSGTDFTLTISSLQPEDFATYYCQQANSFPLTFGGGTKVEIKR
notes: also called 抗体HDR002C06; 抗Claudin18.2抗体
On to B2, for which the binding result in test [1] is recorded as “no binding (tested: 0.1-10 μg/mL tested)”; in test [2], “binds”.

These data come from patent publication CN113735974A (HANGZHOU BANGSHUN PHARMACEUTICAL CO LTD, dated 2021).
